# From the DeepSol protein solubility set
# Assay: soluble on expression in E. coli; label from the status in PepcDB or PDB records
row,Sequence,soluble on expression in E. coli
1,MDAEPSTPKQTEQEPSALSSADQVTNEPMESIIRPSILDSNSKMGNKQEDEDRLKKDSGPSTSNQAEQDPSKSADQFVTLSRPTTLGFSPTFESLQNNQEDTKQSTRLLNEDQDRDTLLKKHVDSLYALSERCIIFAGVLNQFLPTEKRRSKTDFLTENMLAALLSELITQIEVSDLRAKANPAVGKQEGDRCKELVSEKSCIEESLRNFREFAKEDSKTDTSSKLDPPNLNTLLYQLEGIEKIMNSIQTTLEANNFNDSENGSNEVTPNKSQLEGDSLKEVPSEESQIVDSAHDGDSRKEGESEVSEMDNVALDKDLPEETETDKTLVDEIPLEDLDKEPLDENPLEGSPGPAQNMTERNIRKRPNSRHDNVSPSKLQKV,soluble
2,MITVFGLKSKLAPRREKLAEVIYNSLHLGLDIPKGKHAIRFLCLEKEDFYYPFDRSDDYTVIEINLMAGRMEGTKKRLIKMLFSELEYKLGIRAHDVEITIKEQPAHCWGFRGMTGDEARDLDYDIYV,soluble
3,MKVVAAYLLAKLSGNENPSVADLKKIVESVGAEIDQEKIDLFFSLIKDRDVTELIAVGREKMAALSSGGGAVAVASGGGGGAAPAAEPASVESKKKEEEKEESEDDGGMMSLFD,soluble
4,MKKYLLSFLLSMILTLTSHAESNPDPTTYPDVELSPPPRISLRSLLTAQPIKNDHYDSHNYLSTHWELIDYKGKEYEKLRDGGTLVQFKVVGAAKCFAFPGEGTTDCKDIDHTVFNLIPTNTGAFLIKDALLGFCMTSHDFDDLRLEPCGISVSGRTFSLAYQWGILPPFGPSKILRPPVGRNQGS,soluble
5,SQGENVDHAQPISTWSAEQELHLVVFTKPPIAGLTKQRLSREIGSTLATRISAALVENTLATAYDWLQGLDLQAGGTGAVHLYYTPVESEQAKAECVERWLDDSVRHRYPAFRIAPQKASKVQSTGDQKQDPLGSRLIQAFTEVTSLVDESRDAHVVVIGSDCPALDTAVLQQAFAALHAGHGAVIGPAQDGGYYLLGLAFAAAERTRWARVIYAAFGPHLVFSQNDVCARTVEALRNDGVRTICLPVTLNDVDTAQDLVHLPASMRPREWFSSANARLHKTSDLVETAPAPGSTTCDEEVDADKLDPSVQNVCSRQV,soluble
6,TDAPANQGFIIGVTGCPAGVAHTYLAAEALEKGAAAMGYEIKVETNGSIGVKNSPTAEEIERADAIIVACDKQVDMNRFAGKRVVKTNVKAPIRDAQGLINEALNAPTY,not soluble
7,GPGSMAKRDKRRTSLVQQNFDSLKRFYAISPFAAAERATLPPVYSGVYSRRAAMNSYHVVGSSRDQIVLEAMRTFTPSVCTKEVMDLYLEVAALVSLYFDTKEQLLALPDV,not soluble
8,MSLQTSPDMFINRELSWLRFNSRVLDQCSKNLPLLEKLKFIAIYCTNLDEFYMIRVAGLKQLFSAGVNASSSDEMTPLQQLKAIRKYLHQEKELLERYFNEITSELEKENLFIKHYENLDENLKQKCDEYFFSNIFPVIVPIAVDATHPFPHLNNLSFSLAVKICDKAHPELVKFGMIRIPRVLPRFYEVSANIYVPIESIVHQHAEEIFPGYKLLASAAFRVTRNADMVIEEEEADDFMMILEQGLKLRRKGAFVRLQIQKDADEQIVEFLNTHMKIFHKDVYEYSILLNLPSLWQIAGNKTFTHLLSPLYTPKTLPPFDENLSIFDAVEKEDILIIQPFESFDPVYKFIKEASKDPEVISIRMTLYRVEKNSNIVQALIDAASDGKQVTVMVELKARFDEENNLHWAKALENAGAHVIYGITGFKVHAKVSQVIRKQGDKLKFYMHLSTGNYNASSAKIYTDVSYFTSKAEFARDTTSFFHILSGFSKNRRLQTLSMSPNQIKEKVLEMIRIETSKKNEGVIVAKMNSLVDSDIIQALYEASMEGVQIDLIIRGICCLKPDEEYSKNIRVRSIIGKYLEHARVFYFKHSEPNYFISSADWMPRNLERRLELMTPIYDERSKAKLAQFLRLQLSDNVLAYELKNNGEYEKIPSSEKIIDSQQTLEEYVSKIYKTLKKDTDQSRATHLASKLFKENEGHHHHHH,soluble
9,SMALYRVVLLGDPGVGKTSLASLFAGKQERDLHEQLGEDVYERTLTVDGEDTTLVVVDTWEAEKLDKSWSQESCLQGGSAYVIVYSIADRGSFESASELRIQLRRTHQADHVPIILVGNKADLARCREVSVEEGRACAVVFDCKFIETSATLQHNVAELFEGVVRQLRLRRRDSA,soluble
10,MAHHHHHHMILKEFCAEGYERIPEAIAAGAQRVELCARLDVGGVTPSADTIQNTVEYCHSRNAMVMVIIRCREGNFYYSDEEFQVMLKSVILARRLGADGVVFGAIDTLGNVDPRISILLSAAKGMSLTFHMAFDEIPTEKQFQAIDALTAYGFHRILTHGGSASTNIEENLDWLKELVLYAKNRISIMPGGGVTNLNAEKIARDLGVTEVHGTRVVRFV,not soluble
11,MDGNAPEPRYWEKMRLVAEVLKAVEGPIYIATHVDPDGDAIGSSLGLYRALKALGKEAYWVADPPRFLRFLPKEEEYSDPVEKLPPGATLVALDSAEPSRVVGVPVEGFVINIDHHGTNPRFGHLHVVDPSKAATAQMVKDLIDLLGVEWTAEIATPVLTGILTDTGNFRFANTTPEVLRVAAELLGYGVKLAELTDRLQFRPPSYFRLMGQVLSTVAFHFGGLLVTAHLPEEAGAEEDSDDFVGLIRYVEGSVVSVFLRKREEGVKVSIRSRGGVSAQNIALKLGGGGHVPAAGATLKGLDLDQAYERVLEAVREELTRAGYLLEHHHHHH,not soluble
12,MPKVDVYDINGKVVGEINLRDDIFGIEVNKHAIHQVIVNQLANRRQGTQSTKTKSEVRGGGRKPWRQKGTGRARHGSIRSAQWVKGGIALGPKPRSYKYAVPKKLRRLALKSALSSKVNENELLVLDSLNFDEIKTKQMANVLKNLKVNDTTAVLVLADKNRNVELSARNIPGLKTLFVNTMNVYDIIRHDKFIITKDAVAKVEEVYA,not soluble
13,MVAAAVVGTAAVGTKAATDPRSVGTQVDDGTLEVRVNSALSKDEQIKKEARINVTAYQGKVLLVGQSPNAELSARAKQIAMGVDGANEVYNEIRQGQPIGLGEASNDTWITTKVRSQLLTSDLVKSSNVKVTTENGEVFLMGLVTEREAKAAADIASRVSGVKRVTTAFTFIKLEHHHHHH,not soluble
14,MEFVVEEGKLVNEDCSTLVLPALSIGNVGQLAVDLLVSSTGAERVGYLDDPNLLPCVGNDAYGPLPCGEIALPLEVYESSSIATTLAQQRSPVAKGMMIKFAENIANFAASSGKKHIIVLSSLDFQRLHNLDMSRGPQVYYLSNAESDGRDDHCERLGFGRLHEYDSEGRCWKYLSSVFEKNSVEELALPSEDELEDIDYYPSLPFAALFSAFKARGLKMTCLLCYCSEGDNIPEAFLLAEASSKLMGLTPDKFHGEEGGKWQIPYSWKSMYGAPPDMSMF,soluble
15,MGSDKIHHHHHHMKAVVQQWYTHPAVRAALTDLADYRPTLATAIEIQQVPAPTFAERPRSLLVSQRMQALGLHDVEVDDLGNVYGRRPGSTARPGLLISAHLDTVFPADTDLSIRYEGERVYGPGIGDNSAGVAGLLRLAEMYQRFDLPNTSDIWFVANVGEEGLGDLRGMRRVVERLRTRLSTVVVIEGCDFGSLHHQAIGVRRFRIEATGPGGHSWGNFGTPSAIHVLVRLAARLTELQVPSSPRTTFNIGTISGGTSVNTIAQHANMLLDLRSVSSAALTDLVNEVYRLVEEVALEYPDVHIQLTKVGDRPSGAIPREHPLVQAAVAAYQMVGAQISFQQSSTDANIPLSLGMPAVCVGLTDGGNAHRTDEYILPFNLSRGMQALLLLSLAANTLETI,not soluble
16,MMLSATQPLSEKLPAHGCRHVAIIMDGNGRWAKKQGKIRAFGHKAGAKSVRRAVSFAANNGIEALTLYAFSSENWNRPAQEVSALMELFVWALDSEVKSLHRHNVRLRIIGDTSRFNSRLQERIRKSEALTAGNTGLTLNIAANYGGRWDIVQGVRQLAEKVQQGNLQPDQIDEEMLNQHVCMHELAPVDLVIRTGGEHRISNFLLWQIAYAELYFTDVLWPDFDEQDFEGALNAFANRERRFGGTEPGDETA,soluble
17,MMSAPKITFIGAGSTIFVKNILGDVFHREALKTAHIALMDIDPTRLEESHIVVRKLMDSAGASGKITCHTQQKEALEDADFVVVAFQIGGYEPCTVTDFEVCKRHGLEQTIADTLGPGGIMRALRTIPHLWQICENMTEVCPDATMLNYVNPMAMNTWAMYARYPYIKQVGLCHSVQGTAEELARDLNIDPATLRYRCAGINHMAFYLELERKTADGSYVNLYPELLAAYEAGQAPKPNIHGNTRCQNIVRYEMFKKLGYFVTESSEHFAEYTPWFIKLGREDLIERYKVPLDEYPKRCVEQLANWHKELEEYKNASRIDIKPSREYASTIMNAIWTGEPSVIYGNVRNDGLIDNLPQGCCVEVACLVDANGIQPTKVGTLPSHLAALMQTNINVQTLLTEAILTENRDRVYHAAMMDPHTAAVLGIDEIYALVDDLIAAHGDWLPSWLHR,not soluble
18,MVRVKVNDRIVEVPPGTSVMDAVFHAGYDVPLFCSEKHLSPIGACRMCLVRIGLPKKGPDGKPLLNEKGEPEIQWQPKLAASCVTAVADGMVVDTLSDVVREAQAGMVEFTLLNHPLDCPTCDKGGACELQDRTVEYGLYEKYYQKGPLELPVYTRFEFTRRHVDKHHPLSPFVILDRERCIHCKRCVRYFEEVPGDEVLDFIERGVHTFIGTMDFGLPSGFSGNITDICPVGALLDLTARFRARNWEMEETPTTCALCPVGCGITADTRSGELLRIRAREVPEVNEIWICDAGRFGHEWADQNRLKTPLVRKEGRLVEATWEEAFLALKEGLKEARGEEVGLYLAHDATLEEGLLASELAKALKTPHLDFQGRTAAPASLFPPASLEDLLQADFALVLGDPTEEAPILHLRLSEFVRDLKPPHRYNHGTPFADLQIKERMPRRTDKMALFAPYRAPLMKWAAIHEVHRPGEEREILLALLGDKEGSEMVAKAKEAWEKAKNPVLILGAGVLQDTVAAERARLLAERKGAKVLAMTPAANARGLEAMGVLPGAKGASWDEPGALYAYYGFVPPEEALKGKRFVVMHLSHLHPLAERYAHVVLPAPTFYEKRGHLVNLEGRVLPLSPAPIENGEAEGALQVLALLAEALGVRPPFRLHLEAQKALKARKVPEAMGRLSFRLKELRPKERKGAFYLRPTMWKAHQAVGKAQEAARAELWAHPETARAEALPEGAQVAVETPFGRVEARVVHREDVPKGHLYLSALGPAAGLRVEGRVLVPAGGEA,soluble
19,MGSDKIHHHHHHMTNIILICVDQMRADTIRILGNPSIITPNLDALSLNSVVFSNHFSAGSPCSPARTSLLTGQYPATHGSITKNHRLKSTTNLALEIKKIGLSSTLFGFTDTVIPPYIQEKEGIMPGFDVQCYMNLHNIGLSGWAKELQKKGYHVLPNIMDIYRAEKAPYNYHDSDTAFLTDQVINYVASQGQEFGFIHLSYFRPHPPFIAPAPYSEYYPEVNCQKPEVDLETFLSMHPFHECLFHQLYKNTFNNLSYKQIESILTERFSRDKRAYYGLITELDYHLGRLITFLKDKGVYDETLLIFTSDHGELLGDKWLYEKGGYFDQSFHVPLLIKPPKALRSKQEGKIVDSFTSSIDLMPTILDIINAPIPESVEGLSLAELLSDGKNDSTRKDIIYEHYTTLPTKQLNRTLTIKDESFKYVYCSQFEHLLFDLKSDPDELKNLATESKHLNTVAYYQDRLRAEKLL,not soluble
